This assay has as its target p97 (valosin-containing protein, VCP), full-length, wildtype, human (human, UniProt P55072 1-806). Description: SEC. Background: SEC sorts molecules by how far they enter the pores of the column.

Chain of p97 (valosin-containing protein, VCP), full-length, wildtype, human (P55072 whole entry): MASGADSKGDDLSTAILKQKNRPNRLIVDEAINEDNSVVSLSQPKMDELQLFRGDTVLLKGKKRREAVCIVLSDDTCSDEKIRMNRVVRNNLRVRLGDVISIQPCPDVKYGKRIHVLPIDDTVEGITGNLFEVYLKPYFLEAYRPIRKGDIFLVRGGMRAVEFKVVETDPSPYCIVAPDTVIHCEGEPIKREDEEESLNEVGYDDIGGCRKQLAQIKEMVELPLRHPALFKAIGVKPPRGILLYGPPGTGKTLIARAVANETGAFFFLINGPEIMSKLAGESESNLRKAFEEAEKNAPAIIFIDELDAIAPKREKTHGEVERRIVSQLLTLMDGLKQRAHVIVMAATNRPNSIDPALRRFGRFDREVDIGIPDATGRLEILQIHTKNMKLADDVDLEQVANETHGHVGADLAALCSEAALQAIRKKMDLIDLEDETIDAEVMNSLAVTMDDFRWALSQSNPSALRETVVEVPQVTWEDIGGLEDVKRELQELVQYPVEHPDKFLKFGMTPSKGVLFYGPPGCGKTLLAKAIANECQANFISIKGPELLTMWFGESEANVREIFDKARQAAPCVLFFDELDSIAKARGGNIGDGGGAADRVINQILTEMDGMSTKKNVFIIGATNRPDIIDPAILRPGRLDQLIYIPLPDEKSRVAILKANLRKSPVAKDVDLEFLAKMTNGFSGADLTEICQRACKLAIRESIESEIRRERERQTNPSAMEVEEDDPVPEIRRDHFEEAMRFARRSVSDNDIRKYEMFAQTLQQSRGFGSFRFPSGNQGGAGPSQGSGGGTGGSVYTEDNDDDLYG

B1: UBXD1 double mutant containing both the lariat and H4 changes, full-length (natural protein)
chain: MKKFFQEFKADIKFKSAGPGQKLKESVGEKAHKEKPNQPAPRPPRQGPTNEAQMAAAAALARLEQKQSRAWGPTQSRDVTQERIQNKAVLTEASGSPEAPGTNVVSEPREEGSAHLAVPGVYFTCPLTGATLRKDQRDACIKEAILLHFSTDPVAASIMKIYTFNKDQDRVKLGVDTIAKYLDNIHLHPEEEKYRKIKLQNKVFQERINCLEGTHEFFEAIGFQKVLLPAQDQEDPEEFYVLSETTLAQPQSLERHKEQLLAAEPVRAKLDRQRRVFQPSPLASQFELPGDFFNLTAERIKEEQRLESEAVRRLSVLRTKAMREKEEQRGLRKYNYTLLRVRLPDGCLLQGTFYARERLGAVYGFVREALQSDWLPFELLASGGQKLSEDENLALNECGLVPSALLTFSWDMAVLEDIKAAGAEPDSILKPELLSAIEKLL
For B1, the binding result is listed as “binds”.
